Test results: US20220073618A1 (NANJING GENSCRIPT BIOTECH, published 2022)
Residue numbers refer to the chain shown, from its start. Values belong to the binder of their own block, whether it stands above or below them.

Key:
[1] = biological target: T1, PD-L1-HIS recombinant protein (human, UniProt Q9NZQ7 19-238, limits assumed); experiment: SPR (Biacore 8K), antibody captured on chip, PD-L1-HIS analyte 2.5-80 nM, 1:1 binding model
T1 construct: not shown: His tag
Experimental: The chip surface was equilibrated with HBS-EP buffer at a flow rate of 10 μl/min for 5 min, and then a 1:1 mixture of “NHS+EDC” was injected at a flow rate of 10 μl/min for 420 sec to activate the chip. The capture antibody (goat anti-murine IgG) diluted in 10 mM sodium acetate buffer was injected for about 420 sec at a flow rate of 10 μl/min for coupling, and finally ethanolamine was injected for 420 sec at a flow rate of 10 μl/min to block the surface.
Three pre-cycles were performed with the HBS-EP buffer as a sample to balance the chip to stabilize the baseline. The antibody diluted in HBS-EP buffer was injected for 30 sec at a flow rate of 10 μl/min (where the antibody-antigen binding signal was controlled to about 100 RU by adjusting the capture time between 0-5 min), and then the chip was equilibrated with the buffer for 1 min. The low-concentration antigen 2.5 nM PD-L1-HIS was injected at a flow rate of 30 μl/min for 240/300 seconds, to allow the antigen to bind to the antibody, and then the buffer was injected at a flow rate of 30 μl/min for 720/600 seconds for dissociation. 50 mM HCl were injected three times each for 15 s at a flow rate of 100 μl/min for regeneration, to complete one cycle. The antigen concentration was changed (such as 5 nM PD-L1-HIS) to carry out the cycle for measurement at a next gradient concentration until all gradient concentrations (2.5 nM, 5 nM, 10 nM, 20 nM, 40 nM, 80 nM PD-L1-HIS) and the replicate (such as 10 nM PD-L1-HIS) were tested.
The experimental data was double subtracted (minus the background values of the control channel and zero concentration), and fitted to the “1:1 binding” model in the Biacore 8K evaluation software. Biacore 8K was used to determine the affinity of the antibody to the PD-L1-HIS recombinant protein.

PD-L1/Fc [2] = biological target: T2, PD-L1/Fc (UniProt Q9NZQ7 19-238, limits assumed); experiment: SPR (Biacore 8K), prokaryotically expressed antibody as ligand, PD-L1/Fc as analyte, 1:1 binding model
T2 construct: not shown: Fc part
T2 sequence (Q9NZQ7 19-238 limits assumed): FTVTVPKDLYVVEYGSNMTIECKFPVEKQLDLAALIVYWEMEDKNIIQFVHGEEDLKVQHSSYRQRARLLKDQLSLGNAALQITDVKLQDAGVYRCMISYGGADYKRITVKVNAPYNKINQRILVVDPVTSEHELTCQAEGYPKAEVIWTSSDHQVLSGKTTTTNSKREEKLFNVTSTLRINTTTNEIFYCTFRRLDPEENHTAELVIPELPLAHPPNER

human PD-L1 protein [3] = biological target: T3, human PD-L1 protein (human, UniProt Q9NZQ7 19-238, limits assumed); experiment: ELISA on human PD-L1 protein; antibody treated for 20 min (overlapping curves, room temperature to 60 C by the legend, not told apart)
T3 sequence (Q9NZQ7 19-238 limits assumed): as above
Experimental: (§1) The antibody samples were treated for 20 min at various temperature gradients respectively, and then centrifuged to remove the pellet. Then the amount of remaining antibody was evaluated by ELISA. (The temperature gradient includes: room temperature, 30° C., 40° C., 50° C., 60° C., 70° C., […]) (FIG. 4)

human PD-L1 protein [4] = biological target: T3, human PD-L1 protein; experiment: ELISA on human PD-L1 protein; control antibody stored at -80 C
Experimental: as §1

human PD-L1 protein [5] = biological target: T3, human PD-L1 protein; experiment: ELISA on human PD-L1 protein; antibody kept at 40 C for 0 (D0), 7 (D7) or 14 (D14) days
Experimental: The antibody samples were treated separately at 40° C., and then centrifuged to remove the pellet. Then the amount of remaining antibody was evaluated by ELISA. (test after treatment at 40° C. for 7 days (D7) and 14 days (D14) separately; for each test, the untreated sample (D0) stored at −80° C. is used as a control) (FIG. 3)

PD-L1/Fc [6] = biological target: T2, PD-L1/Fc; experiment: SPR (Biacore 8K), antibody as ligand, PD-L1/Fc as analyte, 1:1 binding model

T1 sequence (Q9NZQ7 19-238 limits assumed): as above

B2: AH01964 (antibody, human IgG1, V domains shown)
VH: QVQLQESGPGLVKPSQTLSLTCTVSGYSITSGYTWHWIRQHPGKGLEWIGYIHYSGSTKYNPSLKSRVTISRDTSKNQFSLKLSSVTAADTAVYYCARNSLFASWGQGTLVTVSS
VL: DIVMTQSPDSLAVSLGERATINCRASESVDTYGDSFMHWYQQKPGQPPKLLIYRASNLESGVPDRFSGSGSGTDFTLTISSLQAEDVAVYYCQQSNEAPYTFGGGTKL
notes: also called mPD-L1Ab-CBM clone AH01964
Kd [1]: 1.76 nM | koff [1]: 0.00037 s⁻¹ | kon [1]: 210000 M⁻¹ s⁻¹

B3: AH01950 (prokaryotically expressed antibody product) (Fab, V domains shown)
VH: B2 VH
VL: DIVLTQSPDSLAVSLGERATINCRASESVDTYGDSFMHWFQQKPGQPPKLLIYRASNLESGVPDRFSGSGSGTDFTLTISSLQAEDVAVYYCQQSNEAPYTFGGGTKLEIK
Kd (PD-L1/Fc [2]): 36.7 pM | koff (PD-L1/Fc [2]): 1.9e-05 s⁻¹ | kon (PD-L1/Fc [2]): 518000 M⁻¹ s⁻¹

B7: AH02033 (prokaryotically expressed antibody product) (Fab, V domains shown)
VH: B2 VH with S25T, I49M, V68F
VL: B3 VL with V62I
Kd (PD-L1/Fc [2]): 0.0676 pM | koff (PD-L1/Fc [2]): 2.71e-08 s⁻¹ | kon (PD-L1/Fc [2]): 401000 M⁻¹ s⁻¹

B8: AH01947 (prokaryotically expressed antibody product) (Fab, V domains shown)
VH: B2 VH with R72V
VL: B3 VL
Kd (PD-L1/Fc [2]): 82.2 pM | koff (PD-L1/Fc [2]): 4.38e-05 s⁻¹ | kon (PD-L1/Fc [2]): 533000 M⁻¹ s⁻¹

B9: AH02030 (antibody, human IgG1, V domains shown)
VH: B2 VH with S25T, V68F, S71T
VL: B3 VL with F40Y, G72R
notes: also called mPD-L1Ab-5BM clone AH02030
Kd [1]: 1.17 nM | koff [1]: 0.000216 s⁻¹ | kon [1]: 185000 M⁻¹ s⁻¹

B14: Chimeric antibody (as ranked in Table 2) (Fab, V domains shown)
VH: DVQLQESGPDLVKPSQSLSLTCTVTGYSITSGYTWHWIRQFPGNKLEWMGYIHYSGSTKYNPSLKSRFSITRDTSKNQFFLQLNSMTAEDTATYYCARNSLFASWGHGTLVTVSA
VL: DIVLTQSPASLAVSLGQRATISCRASESVDTYGDSFMHWFQQKPGQPPKLLIYRASNLESGIPARFSGSGSRTDFTLTINPVEADDVATYYCQQSNEAPYTFGGGTKLEIK
Kd (PD-L1/Fc [6]): 0.058 nM | koff (PD-L1/Fc [6]): 2.03e-05 s⁻¹ | kon (PD-L1/Fc [6]): 349000 M⁻¹ s⁻¹

Results, then the binder that gave them:

Kd [1]: 3.11 nM | koff [1]: 0.000714 s⁻¹ | kon [1]: 230000 M⁻¹ s⁻¹
B1: AH01947 (antibody, human IgG1, V domains shown)
VH: B2 VH with R72V
VL: B3 VL
notes: also called mPD-L1Ab-CBM clone AH01947

Kd (PD-L1/Fc [2]): 46.8 pM | koff (PD-L1/Fc [2]): 2.48e-05 s⁻¹ | kon (PD-L1/Fc [2]): 530000 M⁻¹ s⁻¹
B4: AH01964 (prokaryotically expressed antibody product) (Fab, V domains shown)
VH: B2 VH
VL: B2 VL

Kd [1]: 0.903 nM | koff [1]: 0.000166 s⁻¹ | kon [1]: 184000 M⁻¹ s⁻¹
B5: AH02033 (antibody, human IgG1, V domains shown)
VH: B2 VH with S25T, I49M, V68F
VL: B3 VL with V62I
notes: also called mPD-L1Ab-5BM clone AH02033

Kd (PD-L1/Fc [2]): 56.8 pM | koff (PD-L1/Fc [2]): 1.93e-05 s⁻¹ | kon (PD-L1/Fc [2]): 339000 M⁻¹ s⁻¹
B6: AH02029 (prokaryotically expressed antibody product) (Fab, V domains shown)
VH: B2 VH with S25T, T69S
VL: B3 VL with F40Y

Kd (PD-L1/Fc [2]): 34.4 pM | koff (PD-L1/Fc [2]): 1.63e-05 s⁻¹ | kon (PD-L1/Fc [2]): 474000 M⁻¹ s⁻¹
B10: AH01963 (prokaryotically expressed antibody product) (Fab, V domains shown)
VH: B2 VH
VL: B3 VL with F40Y, L82V

Kd (PD-L1/Fc [2]): 43.9 pM | koff (PD-L1/Fc [2]): 1.58e-05 s⁻¹ | kon (PD-L1/Fc [2]): 359000 M⁻¹ s⁻¹
B11: AH02030 (prokaryotically expressed antibody product) (Fab, V domains shown)
VH: B2 VH with S25T, V68F, S71T
VL: B3 VL with F40Y, G72R

Kd (PD-L1/Fc [2]): 9.4 pM | koff (PD-L1/Fc [2]): 4.72e-06 s⁻¹ | kon (PD-L1/Fc [2]): 502000 M⁻¹ s⁻¹
B12: AH01946 (prokaryotically expressed antibody product) (Fab, V domains shown)
VH: B2 VH with V86M
VL: B3 VL with L82V

EC50 (read off the curve) (human PD-L1 protein [3]): ~8 ng/mL | EC50 (read off the curve) (human PD-L1 protein [4]): ~10 ng/mL | Kd [1]: 1.27 nM | koff [1]: 0.000219 s⁻¹ | kon [1]: 172000 M⁻¹ s⁻¹ | EC50 (read off the curve) (human PD-L1 protein [5]): ~10 ng/mL
B13: Chimeric antibody (antibody, V domains shown)
VH: B14 VH
VL: B14 VL
notes: also called mPD-L1Ab-Chim
